The assay concerns the target T1, ngζ_1 toxin (zeta_1) of Neisseria gonorrhoeae, wild type (Neisseria gonorrhoeae, UniProt D5K9G7).
T1 sequence: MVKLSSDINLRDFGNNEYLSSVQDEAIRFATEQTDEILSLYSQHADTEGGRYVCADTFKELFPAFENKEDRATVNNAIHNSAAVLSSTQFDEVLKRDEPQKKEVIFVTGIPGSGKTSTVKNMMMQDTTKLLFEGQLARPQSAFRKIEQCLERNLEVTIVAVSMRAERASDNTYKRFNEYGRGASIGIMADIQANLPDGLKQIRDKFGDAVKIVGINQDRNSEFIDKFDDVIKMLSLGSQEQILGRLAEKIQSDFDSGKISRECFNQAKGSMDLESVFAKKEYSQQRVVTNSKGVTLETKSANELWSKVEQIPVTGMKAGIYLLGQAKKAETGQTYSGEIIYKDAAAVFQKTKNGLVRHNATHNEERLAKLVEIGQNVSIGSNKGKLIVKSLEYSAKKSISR
Kind of assay: crystal structure. The settings on record: both partners purified.

B1: ngε_1 antitoxin (epsilon_1) of Neisseria gonorrhoeae (natural protein)
chain: MNKVEPQESNAIRMIKEACEKNRRMMTDEAFRKEVEKRLYAGPSPELLAKLRVLWAANKEQ
notes: also called ng_ɛ1; source: E. coli BL21(DE3)-RIL, purified as ngε_1/ngζ_1 complex (Ni-NTA, standard chromatographic procedures)
As for B1, the binding result is on record as “binds”.

(Values after paper PMC5923241, “The ng_ζ1 toxin of the gonococcal epsilon/zeta toxin/antitoxin system drains precursors for cell wall synthesis” (Nature Communications, 2018).)
